Assay results as given in patent publication US20230272117A1 (published 2023).

B1: C6.cC1 (other)
chain: MALRGFCSADGSDPLWDWNVTWYTSNPDFTKCFQNTVLVWVPCFYLWACFPFYFLYLSRHDRGYIQMTLLNKTKTALGFLLWIVCWADLFYSFWERSRGIFLAPVFLVSPTLLGITMLLATFLIQLERRKGVQSSGIMLTFWLVALLCALAILRSKIMTALKEDVQVDLFRDMTFYVYFSLVLIQLVLSCFSDRSPLFSETIHDPNPCPESSASFLSRITFWWITGLIVRGYRQPLEGSDLWSLNKEDTSEQVVPVLVKNWKKECAKTRKQPVKVVYSSKDPAQPKDSSKVDANEEVEALIVKSPQKEWNPSLFKVLYKTFGPYFLMSFFFKAIHDLMMFSGPEILKLLINFVNDTKAPDWQGYFYTALLFVAACLQTLVLHQYFHICFVSGMRIKTAVIGAVYRKALVITNAARKSSTVGEIVNLMSVDAQRFMDLATYINMIWSAPLQVILALYLLWRNLGPPILAGVAVMVLMVPVNAVMAMKTKTYQVAHMKSKDNRIKLMNEILNGIKVLKLYAWELAFKDKVLAIRQEELKVLKKSAYLAAVGTFTWVCTPFLVALCTFAVYVTIDKNNVLDAQKAFVSLALFNILRFPLNILPMVISSIVQASVSLKRLRIFLSHEELEPDSIERRPVKDGGDTNSITVRNATFTWARSDPPTLNGITFSIPEGALVAVVGQVGCGKSSLLSALLAEMDKVEGHVALKGSVAYVPQQAWIQNDSLQENILFGCQLEEPYYRSVIQACALLPDLEILPSGDRTEIGEKGVNLSGGQKQRVSLARAVYCNADIYLFDDPLSAVDAHVGKHIFENVIGPKGMLKNKTRILVTHSMSYLPQVDVIIVMSGGKISEMGSYQELLARDGAFAEFLRTYASAEQEQDPEDNGVTGVSGPGKEAKQMENGMLVTDSAGKQLQRQLSSSSSYSGDVSRQHNSTAELQKDGAKKEETWKLMEADKAQTGQVKLSVYWDYMKAIGLFISFLSIFLFICNHVAALASNYWLSLWTDDPIVNGTQEHTKVRLSVYGALGISQGIAVFGYSMAVSIGGILASRCLHVDLLHSILRSPMSFFERTPSGNLVNRFSKELDTVDSMIPEVIKMFMGSLFNVIGACIVILLATPIAAIIIPPLGLIYFFVQRFYVASSRQLKRLESVSRSPVYSHFNETLLGVSVIRAFEEQERFIHQSDLKVDENQKAYYPSIVANRWLAVRLECVGNCIVLFAALFAVISRHSLSAGLVGLSVSYSLQVTTYLNWLVRMSSEMETNIVAVERLKEYSETEKEAPWQIQETAPPSNWPQVGRVEFRNYCLRYREDLDFVLRHINVTINGGEKVGIVGRTGAGKSSLTLGLFRINESAEGEIIIDGINIARIGLHDLRFKITIIPQDPVLFSGSLRMNLDPFSQYSDEEVWTSLELAHLKGFVSALPDKLDHECAEGGENLSVGQRQLVCLARALLRKTKILVLDEATAAVDLETDDLIQSTIRTQFEDCTVLTIAHRLNTIMDYTRVIVLDKGEIQEYGAPSDLLQQRGLFYNMARDAGLV
B2: C6.hC1 (other)
chain: MALRGFCSADGSDPLWDWNVTWNTSNPDFTKCFQNTVLVWVPCFYLWACFPFYFLYLSRHDRGYIQMTPLNKTKTALGFLLWIVCWADLFYSFWERSRGIFLAPVFLVSPTLLGITMLLATFLIQLERRKGVQSSGIMLTFWLVALVCALAILRSKIMTALKEDAQVDLFRDITFYVYFSLLLIQLVLSCFSDRSPLFSETIHDPNPCPESSASFLSRITFWWITGLIVRGYRQPLEGSDLWSLNKEDTSEQVVPVLVKNWKKECAKTRKQPVKVVYSSKDPAQPKESSKVDANEEVEALIVKSPQKEWNPSLFKVLYKTFGPYFLMSFFFKAIHDLMMFSGPQILKLLIKFVNDTKAPDWQGYFYTVLLFVTACLQTLVLHQYFHICFVSGMRIKTAVIGAVYRKALVITNSARKSSTVGEIVNLMSVDAQRFMDLATYINMIWSAPLQVILALYLLWLNLGPSVLAGVAVMVLMVPVNAVMAMKTKTYQVAHMKSKDNRIKLMNEILNGIKVLKLYAWELAFKDKVLAIRQEELKVLKKSAYLSAVGTFTWVCTPFLVALCTFAVYVTIDENNILDAQTAFVSLALFNILRFPLNILPMVISSIVQASVSLKRLRIFLSHEELEPDSIERRPVKDGGGTNSITVRNATFTWARSDPPTLNGITFSIPEGALVAVVGQVGCGKSSLLSALLAEMDKVEGHVAIKGSVAYVPQQAWIQNDSLRENILFGCQLEEPYYRSVIQACALLPDLEILPSGDRTEIGEKGVNLSGGQKQRVSLARAVYSNADIYLFDDPLSAVDAHVGKHIFENVIGPKGMLKNKTRILVTHSMSYLPQVDVIIVMSGGKISEMGSYQELLARDGAFAEFLRTYASTEQEQDAEENGVTGVSGPGKEAKQMENGMLVTDSAGKQLQRQLSSSSSYSGDISRHHNSTAELQKAEAKKEETWKLMEADKAQTGQVKLSVYWDYMKAIGLFISFLSIFLFMCNHVSALASNYWLSLWTDDPIVNGTQEHTKVRLSVYGALGISQGIAVFGYSMAVSIGGILASRCLHVDLLHSILRSPMSFFERTPSGNLVNRFSKELDTVDSMIPEVIKMFMGSLFNVIGACIVILLATPIAAIIIPPLGLIYFFVQRFYVASSRQLKRLESVSRSPVYSHFNETLLGVSVIRAFEEQERFIHQSDLKVDENQKAYYPSIVANRWLAVRLECVGNCIVLFAALFAVISRHSLSAGLVGLSVSYSLQVTTYLNWLVRMSSEMETNIVAVERLKEYSETEKEAPWQIQETAPPSSWPQVGRVEFRNYCLRYREDLDFVLRHINVTINGGEKVGIVGRTGAGKSSLTLGLFRINESAEGEIIIDGINIAKIGLHDLRFKITIIPQDPVLFSGSLRMNLDPFSQYSDEEVWTSLELAHLKDFVSALPDKLDHECAEGGENLSVGQRQLVCLARALLRKTKILVLDEATAAVDLETDDLIQSTIRTQFEDCTVLTIAHRLNTIMDYTRVIVLDKGEIQEYGAPSDLLQQRGLFYSMAKDAGLV

What was measured:
Assay in all cases: FACS cell binding
C1.844.hu41 = target: C1.844.hu41
C1.844.hu31 = target: C1.844.hu31
C1.861.hu31 = target: C1.861.hu31
C1.831.hu31 = target: C1.831.hu31
C1.861.hu51 = target: C1.861.hu51

Binder | Kd (C1.844.hu41) [nM] | Kd (C1.844.hu31) [nM] | Kd (C1.861.hu31) [nM] | Kd (C1.831.hu31) [nM] | Kd (C1.861.hu51) [nM]
B1 | 107 | 253 | 110 | 1070 | 125
B2 | 94 | 518 | – | – | –
